These results are taken from article PMC10793706, “Genetically engineered IgG1 and nanobody oligomers acquire strong intrinsic CD40 agonism” (Bioengineered, 2024).

Bounds are passed on as bounds.

In experiment [1] the target is human CD40 expressed on HT1080-CD40 transfectants (human) (UniProt P25942).
Experiment [2] deals with T1, CD40-GpL, the CD40 ectodomain with a C-terminal Gaussia princeps luciferase (GpL) reporter domain (Homo sapiens, UniProt P25942).
T1 construct: extracellular domain of CD40 with its cysteine-rich domains (CRDs); also called CD40(ed)-GpL; source: HEK293T, transfected, cell culture supernatant; not shown: Gaussia princeps luciferase (GpL), C-terminal, kept
Kind of experiment: plate binding assay with Gaussia luciferase (GpL) fusion proteins; plates coated with 1 µg/ml protein G, loaded with anti-CD40 antibodies (1 µg/ml, in medium); GpL-linked CD40 ectodomain and its deletion mutants added for 1 hour at 37°C; TNFR2(ed)-GpL values subtracted as unspecific binding. The note with it: partners not purified.

T1 sequence (P25942 21-193): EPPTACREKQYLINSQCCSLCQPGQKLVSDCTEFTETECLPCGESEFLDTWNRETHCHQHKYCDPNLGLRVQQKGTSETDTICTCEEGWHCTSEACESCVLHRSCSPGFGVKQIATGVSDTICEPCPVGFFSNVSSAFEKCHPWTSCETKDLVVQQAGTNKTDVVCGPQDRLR
Chain of human CD40 expressed on HT1080-CD40 transfectants (human) (P25942 21-277): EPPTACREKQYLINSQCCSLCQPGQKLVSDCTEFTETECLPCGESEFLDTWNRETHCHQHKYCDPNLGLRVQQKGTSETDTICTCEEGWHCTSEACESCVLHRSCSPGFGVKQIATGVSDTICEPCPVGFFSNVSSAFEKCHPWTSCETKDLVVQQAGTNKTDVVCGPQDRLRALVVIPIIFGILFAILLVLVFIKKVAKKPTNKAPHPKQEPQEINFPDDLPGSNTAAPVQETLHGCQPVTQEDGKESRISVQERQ

On to APX005M-IgG1 (N297A-RGY) (antibody), for which the p100 processing and TRAF1 induction (western blot) in U2OS cells; concentration from which the response starts in experiment [1] is less than 100 ng/mL.

B1: G28.5-IgG1 (antibody, V domains shown)
VH: DIQLQQSGPGLVKPSQSLSLTCSVTGYSITTNYNWNWIRQFPGNKLEWMGYIRYDGTSEYTPSLKNRVSITRDTSMNQFFLRLTSVTPEDTATYYCARLDYWGQGTLVTVSS
VL: DIVMTQNPLSLPVSLGDEASISCRSSQSLENSNGNTFLNWFFQKPGQSPQLLIYRVSNRFSGVPDRFSGSGSGTDFTLKISRVEAEDLGVYFCLQVTHVPYTFGGGTTLEIK
notes: VH of G28.5; constant region of the IgG1 heavy chain; IgG1; source: HEK293T, transfected, cell culture supernatant
For B1, the binding result in experiment [2] was “binds”.

B2: ADC-1013-IgG1 (antibody, V domains shown)
VH: EVQLLESGGGLVQPGGSLRLSCAASGFTFSTYGMHWVRQAPGKGLEWLSYISGGSSYIFYADSVRGRFTISRDNSENALYLQMNSLRAEDTAVYYCARILRGGSGMDLWGQGTLVTVSS
VL: QSVLTQPPSASGTPGQRVTISCTGSSSNIGAGYNVYWYQQLPGTAPKLLIYGNINRPSGVPDRFSGSKSGTSASLAISGLRSEDEADYYCAAWDKSISGLVFGGGTKLTVL
notes: constant region of the IgG1 heavy chain; IgG1; also called Mitazalimab; source: HEK293T, transfected, cell culture supernatant
Take B2: in experiment [2], the binding result is “binds”.

B3: APX005M-IgG1 (antibody, V domains shown)
VH: QSLEESGGDLVKPGASLTLTCTASGFSFSSTYVCWVRQAPGKGLEWIACIYTGDGTNYSASWAKGRFTISKPSSTTVTLQMTSLTPADTATYFCARPDITYGFAINFWGPGTLVTVSS
VL: DIVMTQTPSSASEPVGGTVTIKCQASQSISSRLAWYQQKPGQPPKLLIYRASTLASGVPSRFKGSGSGTEFTLTISDLECADAATYYCQCTGYGISWPIGGGTEVVVK
notes: VH of APX005M; constant region of the IgG1 heavy chain; IgG1; also called Sotigalimab; anti-CD40(APX); source: HEK293T, transfected, cell culture supernatant
For B3, in experiment [2], the binding result was “binds”.
